Source: patent publication US20050164945A1, “Endotheliase-1 ligands” (priority 2003, published 2005)

T1: recombinant endotheliase 1 (human), Q9UL52
T1 chain: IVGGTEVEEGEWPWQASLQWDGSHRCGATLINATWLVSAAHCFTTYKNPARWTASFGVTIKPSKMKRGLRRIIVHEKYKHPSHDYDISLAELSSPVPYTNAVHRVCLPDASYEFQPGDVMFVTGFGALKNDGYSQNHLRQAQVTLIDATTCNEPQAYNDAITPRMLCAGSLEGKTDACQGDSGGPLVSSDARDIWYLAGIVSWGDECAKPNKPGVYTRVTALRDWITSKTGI


Experiments:
[1] = molecular target: T1, recombinant endotheliase 1 (human), …; assay: inhibition of ET1 activity
[2] = molecular target: T1, recombinant endotheliase 1 (human), …; assay: cell-based or functional assay

Row | Binder | Ki [1] [nM] | ET1 IC50 [2] [nM]
1 | AGVQHCESRDLPCLIKGT (modifications not checked) [DX-1051] | 100 to 1000 | 770
2 | AGNYMCKGYWPDCKMTGT (modifications not checked) [DX-1133] |  | 350
3 | AGWPTCRGFWPDCGMMGT (modifications not checked) [DX-1135] | 100 to 1000 | 47
